Measured values reported in patent US20260109758A1 (BIOSION, published 2026).
Values belong to the binder of their own block, whether it stands above or below them.

Assays:
[1] = target: T1, recombinant human TSLP-his (human, UniProt Q969D9 29-159, biotin-labeled in the ELISAs); experiment: competitive ELISA: antibody pre-mixed with biotin human TSLP-his; blocked binding to coated TSLPR-Fc/IL7Ra-Fc
T1 construct: In-house made; not shown: His tag at the C-terminus
Protocol: Briefly, 100 μL human TSLPR-Fc proteins (SEQ ID NO: 34-SEQ ID NO: 38 fusion, prepared in-house) at 1 μg/mL in PBS, and 100 μL human IL7Ra-Fc proteins (SEQ ID NO: 35-SEQ ID NO: 38 fusion, prepared in-house) at 1 μg/mL in PBS were coated on 96-well micro plates overnight at 4° C. The next day, plates were washed with wash buffer (PBS+0.05% Tween-20, PBST), and blocked with 5% w/v non-fatty milk in PBST for 2 hours at 37° C. Plates were then washed again using wash buffer.
After incubation at 37° C. for 40 minutes, plates were washed 4 times using wash buffer. […] Plates were washed again using wash buffer. Finally, TMB was added and the reaction was stopped using 1M H₂SO₄. The absorbance was read on a microplate reader using dual wavelength mode with 450 nm for TMB and 630 nm as the reference wavelength, then the OD (450-630) values were plotted against the antibody concentration. Data was analyzed using Graphpad Prism and IC₅₀ values were reported.

[2] = target: T2, recombinant human IL4Rα-his (human, UniProt P24394 26-231, limits assumed, biotin-labeled in the capture ELISA); experiment: capture ELISA: antibody captured on anti-human IgG Fc F(ab')2, biotin human IL4Rα-his, SA-HRP
T2 construct: In-house made; not shown: His tag at the C-terminus
Protocol: Briefly, 96-well plates were coated with 2 μg/mL AffiniPure F(ab′)₂ Fragment Goat Anti-Human IgG, Fey fragment specific (Jackson Immuno Research, Cat #109-006-008) in PBS, 100 μL/well, overnight at 4° C. Plates were washed once with wash buffer (PBS+0.05% w/v Tween-20, PBST) and then blocked with 200 μL/well blocking buffer (5% w/v non-fatty milk in PBST) for 2 hours at 37° C. […] After a final wash, plates were incubated with 100 μL/well ELISA substrate TMB (Innoreagents, Cat #TMB-S-002). The reaction was stopped in 10 minutes at 25° C. with 50 μL/well 1M H₂SO₄, and the absorbance was read on a microplate reader using dual wavelength mode with 450 nm for TMB and 630 nm as the reference wavelength. Data was analyzed using Graphpad Prism and EC₅₀ values were reported.

[3] = target: T2, recombinant human IL4Rα-his; experiment: dual-binding ELISA: coated human IL4Rα-his, antibody titrated, detection with biotin human TSLP-his and SA-HRP; signal needs both antigens bound
Protocol: For the dual-binding ELISA, 96-well ELISA plates were firstly coated with 100 μL 1 μg/mL human IL4Rα-his protein (IL4Rα of SEQ ID NO: 33 with His tag at C terminus, prepared in-house) in PBS overnight at 4° C. ELISA plates were washed 4 times with wash buffer (PBS+0.05% Tween-20, PBST) and then blocked with 200 μL/well blocking buffer (5% w/v non-fatty milk in PBST) for 2 hours at 37° C. […] ELISA plates were washed again and incubated with SA-HRP (100 μl/well) for 40 minutes at 37° C. After the final wash, 100 μL/well TMB (Innoreagents) was added. The reaction was stopped 15 minutes later at room temperature with 50 μL/well 1M H₂SO₄, and the absorbance was read on a microplate reader using dual wavelength mode with 450 nm for TMB and 630 nm as the reference wavelength. The OD (450-630) values were plotted against antibody concentration. Data was analyzed using Graphpad Prism and EC₅₀ values were reported.

[4] = target: T2, recombinant human IL4Rα-his; experiment: SPR Biacore T200; antibody captured on anti-human IgG CM5 chip, IL4Rα-his as analyte; 1:1 Langmuir fit
How it was run: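 Antibodies captured on anti-human IgG CM5 chip (bispecifics at 66.67 nM, controls 10 μg/mL), then serially diluted recombinant human IL4Rα-his (C-terminal His tag) in HBS EP flowed at 30 μL/min. Association and dissociation curves fit to 1:1 Langmuir model.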

[5] = target: T1, recombinant human TSLP-his; experiment: SPR Biacore; TSLP-his amine-coupled to CM5 chip, antibody as analyte; 1:1 Langmuir fit
Protocol: Un-reacted moieties on the biosensor surface were blocked with ethanolamine. Then, serially diluted purified bispecific antibodies and the controls (2-fold serial dilution in HBS-EP⁺ buffer starting at 100 nM) were respectively flowed onto the chip at a flow rate of 30 μL/min. The antigen-antibody association kinetics was followed for 4 minutes and the dissociation kinetics was followed for 13 minutes.

IC50 [1]: 0.134 nM | EC50 [2]: 0.0416 nM | EC50 [3]: 0.0491 nM | Kd [4]: 2.43 nM | koff [4]: 0.000534 s⁻¹ | kon [4]: 220000 M⁻¹ s⁻¹ | Kd [5]: 0.000317 nM | koff [5]: 1.82e-07 s⁻¹ | kon [5]: 574000 M⁻¹ s⁻¹
B1: BSI-502-003 (bispecific antibody, human IgG1, kappa)
heavy: EVQLVESGGGLVQPGGSLRLSCAASGFTFSTYGMSWVRQAPGKGLVWVATINSNGGSTSYPDSVKGRFTISRDNAKNTLYLQMNSLRAEDTAVYYCARFFRFRNAMDYWGQGTLVTVSSGGGGSGGGGSGGGGSGGGGSDIQMTQSPSSLSASVGDRVTITCRTSENIYSYLAWYQQKPGKAPKFLVYNAKTLAEGVPSRFSGSGSGTDFTLTISSLQPEDFATYYCQHYYGPPTWTFGQGTKVEIKGGGGSGGGGSQVQLVQSGAEVKKPGASVKVSCKASGYTFTTYWMHWVRQAPGQGLEWMGVIDPSDSDTTYNQKFKGRVTMTRDTSTSTVYMELSSLRSEDTAVYYCTRSLDGYYDYWGQGTLVTVSSASTKGPSVFPLAPSSKSTSGGTAALGCLVKDYFPEPVTVSWNSGALTSGVHTFPAVLQSSGLYSLSSVVTVPSSSLGTQTYICNVNHKPSNTKVDKKVEPKSCDKTHTCPPCPAPEAQGGPSVFLFPPKPKDTLYITREPEVTCVVVDVSHEDPEVKFNWYVDGVEVHNAKTKPREEQYNSTYRVVSVLTVLHQDWLNGKEYKCQVSNKALPAPIEKTISKAKGQPREPQVYTLPPSRDELTKNQVSLTCLVKGFYPSDIAVEWESNGQPENNYKTTPPVLDSDGSFFLYSKLTVDKSRWQQGNVFSCSVMHEALHNHYTQKSLSLSPG
light: DIQMTQSPSSLSASVGDRVTITCRPTENIYSYLAWYQQKPGKAPKLLIYFARTLAEGVPSRFSGSGSGTDFTLTISSLQPEDFATYYCQHHYGTPWTFGGGTKVEIKRTVAAPSVFIFPPSDEQLKSGTASVVCLLNNFYPREAKVQWKVDNALQSGNSQESVTEQDSKDSTYSLSSTLTLSKADYEKHKVYACEVTHQGLSSPVTKSFNRGEC
notes: hu1C5F12E9-V8 IgG with an anti-IL4R scFv (huC2C1A1A1-V15, VH-VL) at the N-terminus of the heavy chain; AQQ and YTE already stand in the entry

IC50 [1]: 0.144 nM | EC50 [2]: 0.0346 nM | EC50 [3]: 0.0652 nM | Kd [4]: 2.43 nM | koff [4]: 0.000453 s⁻¹ | kon [4]: 186000 M⁻¹ s⁻¹ | Kd [5]: 0.00342 nM | koff [5]: 1.71e-06 s⁻¹ | kon [5]: 499000 M⁻¹ s⁻¹
B2: BSI-502-004 (bispecific antibody, human IgG1, kappa)
heavy: DIQMTQSPSSLSASVGDRVTITCRTSENIYSYLAWYQQKPGKAPKFLVYNAKTLAEGVPSRFSGSGSGTDFTLTISSLQPEDFATYYCQHYYGPPTWTFGQGTKVEIKGGGGSGGGGSGGGGSGGGGSEVQLVESGGGLVQPGGSLRLSCAASGFTFSTYGMSWVRQAPGKGLVWVATINSNGGSTSYPDSVKGRFTISRDNAKNTLYLQMNSLRAEDTAVYYCARFFRFRNAMDYWGQGTLVTVSSGGGGSGGGGSQVQLVQSGAEVKKPGASVKVSCKASGYTFTTYWMHWVRQAPGQGLEWMGVIDPSDSDTTYNQKFKGRVTMTRDTSTSTVYMELSSLRSEDTAVYYCTRSLDGYYDYWGQGTLVTVSSASTKGPSVFPLAPSSKSTSGGTAALGCLVKDYFPEPVTVSWNSGALTSGVHTFPAVLQSSGLYSLSSVVTVPSSSLGTQTYICNVNHKPSNTKVDKKVEPKSCDKTHTCPPCPAPEAQGGPSVFLFPPKPKDTLYITREPEVTCVVVDVSHEDPEVKFNWYVDGVEVHNAKTKPREEQYNSTYRVVSVLTVLHQDWLNGKEYKCQVSNKALPAPIEKTISKAKGQPREPQVYTLPPSRDELTKNQVSLTCLVKGFYPSDIAVEWESNGQPENNYKTTPPVLDSDGSFFLYSKLTVDKSRWQQGNVFSCSVMHEALHNHYTQKSLSLSPG
light: B1 light
notes: hu1C5F12E9-V8 IgG with an anti-IL4R scFv (VL-VH) at the N-terminus of the heavy chain; AQQ and YTE already stand in the entry

IC50 [1]: 0.257 nM | EC50 [2]: 0.0218 nM | EC50 [3]: 0.0349 nM | Kd [4]: 3.09 nM | koff [4]: 0.000497 s⁻¹ | kon [4]: 161000 M⁻¹ s⁻¹ | Kd [5]: < 0.0246 nM | koff [5]: < 1e-05 s⁻¹ | kon [5]: 407000 M⁻¹ s⁻¹
B3: BSI-502-001 (bispecific antibody, human IgG1, kappa)
heavy: EVQLVESGGGLVQPGGSLRLSCAASGFTFSTYGMSWVRQAPGKGLVWVATINSNGGSTSYPDSVKGRFTISRDNAKNTLYLQMNSLRAEDTAVYYCARFFRFRNAMDYWGQGTLVTVSSASTKGPSVFPLAPSSKSTSGGTAALGCLVKDYFPEPVTVSWNSGALTSGVHTFPAVLQSSGLYSLSSVVTVPSSSLGTQTYICNVNHKPSNTKVDKKVEPKSCDKTHTCPPCPAPEAQGGPSVFLFPPKPKDTLYITREPEVTCVVVDVSHEDPEVKFNWYVDGVEVHNAKTKPREEQYNSTYRVVSVLTVLHQDWLNGKEYKCQVSNKALPAPIEKTISKAKGQPREPQVYTLPPSRDELTKNQVSLTCLVKGFYPSDIAVEWESNGQPENNYKTTPPVLDSDGSFFLYSKLTVDKSRWQQGNVFSCSVMHEALHNHYTQKSLSLSPGKGGGGSGGGGSQVQLVQSGAEVKKPGASVKVSCKASGYTFTTYWMHWVRQAPGQGLEWMGVIDPSDSDTTYNQKFKGRVTMTRDTSTSTVYMELSSLRSEDTAVYYCTRSLDGYYDYWGQGTLVTVSSGGGGSGGGGSGGGGSGGGGSDIQMTQSPSSLSASVGDRVTITCRPTENIYSYLAWYQQKPGKAPKLLIYFARTLAEGVPSRFSGSGSGTDFTLTISSLQPEDFATYYCQHHYGTPWTFGGGTKVEIK
light: DIQMTQSPSSLSASVGDRVTITCRTSENIYSYLAWYQQKPGKAPKFLVYNAKTLAEGVPSRFSGSGSGTDFTLTISSLQPEDFATYYCQHYYGPPTWTFGQGTKVEIKRTVAAPSVFIFPPSDEQLKSGTASVVCLLNNFYPREAKVQWKVDNALQSGNSQESVTEQDSKDSTYSLSSTLTLSKADYEKHKVYACEVTHQGLSSPVTKSFNRGEC
notes: huC2C1A1A1-V15 IgG with an anti-TSLP scFv (hu1C5F12E9-V8, VH-VL) at the C-terminus of the heavy chain

IC50 [1]: 0.758 nM | EC50 [3]: 0.136 nM | Kd [4]: 1.51 nM | koff [4]: 0.000487 s⁻¹ | kon [4]: 323000 M⁻¹ s⁻¹ | Kd [5]: < 0.0472 nM | koff [5]: < 1e-05 s⁻¹ | kon [5]: 212000 M⁻¹ s⁻¹
B4: BSI-502-002 (bispecific antibody, human IgG1, kappa)
heavy: EVQLVESGGGLVQPGGSLRLSCAASGFTFSTYGMSWVRQAPGKGLVWVATINSNGGSTSYPDSVKGRFTISRDNAKNTLYLQMNSLRAEDTAVYYCARFFRFRNAMDYWGQGTLVTVSSASTKGPSVFPLAPSSKSTSGGTAALGCLVKDYFPEPVTVSWNSGALTSGVHTFPAVLQSSGLYSLSSVVTVPSSSLGTQTYICNVNHKPSNTKVDKKVEPKSCDKTHTCPPCPAPEAQGGPSVFLFPPKPKDTLYITREPEVTCVVVDVSHEDPEVKFNWYVDGVEVHNAKTKPREEQYNSTYRVVSVLTVLHQDWLNGKEYKCQVSNKALPAPIEKTISKAKGQPREPQVYTLPPSRDELTKNQVSLTCLVKGFYPSDIAVEWESNGQPENNYKTTPPVLDSDGSFFLYSKLTVDKSRWQQGNVFSCSVMHEALHNHYTQKSLSLSPGKGGGGSGGGGSDIQMTQSPSSLSASVGDRVTITCRPTENIYSYLAWYQQKPGKAPKLLIYFARTLAEGVPSRFSGSGSGTDFTLTISSLQPEDFATYYCQHHYGTPWTFGGGTKVEIKGGGGSGGGGSGGGGSGGGGSQVQLVQSGAEVKKPGASVKVSCKASGYTFTTYWMHWVRQAPGQGLEWMGVIDPSDSDTTYNQKFKGRVTMTRDTSTSTVYMELSSLRSEDTAVYYCTRSLDGYYDYWGQGTLVTVSS
light: B3 light
notes: huC2C1A1A1-V15 IgG with an anti-TSLP scFv (VL-VH) at the C-terminus of the heavy chain; AQQ and YTE already stand in the entry
